Laboratory results from patent US20240115745A1 (3B PHARMACEUTICALS, published 2024).
*1 amine or outer side, *2 acyl side, *3 side chain or, on linkers, in order; H or OH if unused. Bridges are numbered along the chain shown (N, C = ends). Primed or numbered codes have the meaning given here. [ ]: non-standard residue; d: D form. The star is where a group is joined. mli = maleimide cyclization element: 3,4-maleimide inserted symmetrically, forming a vinyl thioether with each Cys sulfur; mli(Me)″ = N-methyl maleimide cyclization element, vinyl thioethers with both Cys, CN1C(=O)C([*:1])=C([*:2])C1=O; mli(DOTA-Eda) = 3,4-N-(DOTA-aminoethyl)-maleimide bridging two Cys S atoms as vinyl thioethers; Ttds = 1,13-diamino-4,7,10-trioxatridecan-succinamic acid, NCCCOCCOCCOCCCNC(=O)CCC(=O)*; mli(DOTA-Ttd) = 3,4-N-(DOTA-Ttd)-maleimide bridging two Cys S atoms as vinyl thioethers; mli(NODAGA-Ttd) = mli with NODAGA attached to the maleimide nitrogen via a Ttd linker; mli(N4Ac-Ttd) = mli with N4Ac attached to the maleimide nitrogen via a Ttd linker; mli(Me) = N-methyl maleimide cyclization element, CN1C(=O)C([*:1])=C([*:2])C1=O; N4Ac = 6-carboxy-1,4,8,11-tetraazaundecane, NCCNCC(CNCCN)C(=O)*; DOTA = O=C(O)CN1CCN(CC(=O)O)CCN(CC(=O)*)CCN(CC(=O)O)CC1; NODAGA = O=C(O)CN1CCN(CC(=O)O)CCN(C(CCC(=O)*)C(=O)O)CC1; O2Oc = 3,6-dioxaoctanoic acid; Nle = CCCC[C@H](N)C(=O)O; Hexanoyl = CCCCCC(=O)*

What was measured:
[1] = molecular target: T1, fibroblast activation protein (FAP) on FAP-expressing human WI-38 fibroblasts (human, UniProt Q12884 1-760); test: competitive FACS on WI-38 cells vs 3 nM Cy5-labeled probe; A = pIC50 >7.0
T1 construct: Endogenous FAP on WI-38 cells (ECACC) in the FACS assay; also called human FAP
Experimental: FAP-expressing human WI-38 fibroblasts (ECACC) were cultured in EMEM including 15% fetal bovine serum, 2 mM L-Glutamine and 1% Non-essential amino acids. Cells were detached with Accutase (Biolegend, #BLD-423201) and washed in FACS buffer (PBS including 1% FBS). Cells were diluted in FACS buffer to a final concentration of 100.000 cells per ml and 200 μl of the cell suspension are transferred to a u-shaped non-binding 96-well plate (Greiner). […] Cell were washed twice with FACS buffer and resuspended in 200 μl FACS buffer. Cells were analyzed in an Attune NxT flow cytometer. Median fluorescence intensities (Cy5 channel) was calculated by Attune NxT software and plotted against peptide concentrations. Four parameter logistic (4PL) curve fitting and pIC50 calculations were performed using ActivityBase software.

[2] = molecular target: Recombinant human FAP (R&D systems, #3715-SE) (human, UniProt Q12884 26-760); test: cell-based or functional assay

pIC50 Category (FACS) [1] [pIC50] | pIC50 Category (Activity), FRET-based FAP protease activity assay [2] [pIC50] | Binder
> 7 | > 7 | Hexanoyl-CPPTQFCD-NH2 (linker 1-7 via mli(NODAGA-Ttd)) [compound Hex-[Cys(mli(NODAGA-Ttd))-Pro-Pro-Thr-Gln-Phe-Cys]-Asp-NH2 (2025)]
> 7 | > 7 | Hexanoyl-CPPTQFCD-NH2 (linker 1-7 via mli(N4Ac-Ttd)) [compound Hex-[Cys(mli(N4Ac-Ttd))-Pro-Pro-Thr-Gln-Phe-Cys]-Asp-NH2 (2026)]
> 7 | > 7 | Hexanoyl-CPPTQFCDK(N4Ac)-NH2 (linker 1-7 via mli) [compound Hex-[Cys(mli)-Pro-Pro-Thr-Gln-Phe-Cys]-Asp-Lys(N4Ac)-NH2 (2024)]
> 7 | > 7 | {DOTA-Ttds}-[Nle]CPPTEFCDHFRD-NH2 (disulfide 2-8, By the running order it belongs to 1006) [compound DOTA-Ttds-Nle-[Cys-Pro-Pro-Thr-Glu-Phe-Cys]-Asp-His-Phe-Arg-Asp-NH2 (1006)]
> 7 | > 7 | Hexanoyl-CPPTQFCD-NH2 (linker 1-7 via mli(DOTA-Eda)) [compound Hex-[Cys(mli(DOTA-Eda))-Pro-Pro-Thr-Gln-Phe-Cys]-Asp-NH2 (2018)]
> 7 | > 7 | Hexanoyl-CPPTQFCDK(DOTA)-NH2 (linker 1-7 via mli(Me); SMILES CCCCCC(=O)N[C@H]1CSC2=C(SC[C@@H](C(=O)N[C@@H](CC(=O)O)C(=O)N[C@@H](CCCCNC(=O)CN3CCN(CC(=O)O)CCN(CC(=O)O)CCN(CC(=O)O)CC3)C(N)=O)NC(=O)[C@H](Cc3ccccc3)NC(=O)[C@H](CCC(N)=O)NC(=O)[C@H]([C@@H](C)O)NC(=O)[C@@H]3CCCN3C(=O)[C@@H]3CCCN3C1=O)C(=O)N(C)C2=O) [compound Hex-[Cys(mli(Me))-Pro-Pro-Thr-Gln-Phe-Cys]-Asp-Lys(DOTA)-NH2 (2015)]
> 7 | > 7 | Hexanoyl-CPPTQFCDK(NODAGA)-NH2 (linker 1-7 via mli) [compound Hex-[Cys(mli)-Pro-Pro-Thr-Gln-Phe-Cys]-Asp-Lys(NODAGA)-NH2 (2023)]
> 7 | > 7 | {DOTA-Ttds}-[Nle]CPPTQFCD-NH2 (disulfide 2-8) [compound DOTA-Ttds-Nle-[Cys-Pro-Pro-Thr-Gln-Phe-Cys]-Asp-NH2 (1008)]
> 7 | > 7 | {DOTA-O2Oc}-[Nle]CPPTEFCDHFRD-NH2 (disulfide 2-8, By the running order it belongs to 1005) [compound DOTA-O2Oc-Nle-[Cys-Pro-Pro-Thr-Glu-Phe-Cys]-Asp-His-Phe-Arg-Asp-NH2 (1005)]
> 7 | > 7 | Hexanoyl-CPPTQFCD-NH2 (linker 1-7 via mli(DOTA-Ttd)) [compound Hex-[Cys(mli(DOTA-Ttd))-Pro-Pro-Thr-Gln-Phe-Cys]-Asp-NH2 (2017)]
> 7 | > 7 | {DOTA-Ttds}-[Nle]CPPTQFCD-NH2 (linker 2-8 via mli(Me)″) [compound DOTA-Ttds-Nle-[Cys(mli(Me))-Pro-Pro-Thr-Gln-Phe-Cys]-Asp-NH2 (2016)]
